Experimental data as given in patent CN111393529A (KANGYUAN BOCHUANG BIO TECH BEIJING CO LTD, dated 2020).

T1: OX40蛋白胞外区与小鼠IgG2a-FC的融合蛋白 (human; mouse, UniProt P43489 29-214)
T1 construct: also called 抗原OX40小鼠IgG2a Fc标签蛋白; 实施例1中的融合蛋白; not shown: Mouse IgG2a Fc, from Genbank AAH31470.1
T1 sequence: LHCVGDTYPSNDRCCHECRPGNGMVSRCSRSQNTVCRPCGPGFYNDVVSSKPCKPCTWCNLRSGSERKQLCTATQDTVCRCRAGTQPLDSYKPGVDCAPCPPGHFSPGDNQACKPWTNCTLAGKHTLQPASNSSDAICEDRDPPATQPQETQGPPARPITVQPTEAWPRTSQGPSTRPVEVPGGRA


Molecular target: T1, OX40蛋白胞外区与小鼠IgG2a-FC的融合蛋白
Experiment: SPR, Biacore T200, antibody captured on CM5 chip, OX40-mouse IgG2a Fc as analyte

Row | Kd | Binder
1 | 5.1 nM | 抗体H1E6 (antibody, V domains shown) VH: EVKLVESGAELVKPGTSVRLSCKASGYTFTSYDINWVRQRPEQGLEWIGWIFPGDGSTKYNEKFKGKATLTTDKSSSTVYMQLSRLTSEDSAVYFCARWDGYYEGDYFDNWGQGTTLTVSS VL: DIVMTQSPSSLSASLGGKVTITCKASQDINKYIAWYQHKPGKGPRLLIHYTSTLQPGIPSRFSGSGSGRDYSFNISNLEPEDIATYYCLQYVNLYTFGGGTKLEIKR
2 | 4.4 nM | 抗体I3E3 (antibody, V domains shown) VH: EVKLVESGGGLVQPGGSLRLSCATSGFTFSDFYMGWVRQPPGKRLEWIAASRNKAYDYTTAYSASVKGRFIVSRDTSQSILYLQMNALRAEDTAIYYCARDDGYYPMDYWGQGTSVTVSS VL: DIQLTQSPASLAVSLGQRATISCRASKSVSTSGYSYMHWYQQKPGQPPKLLIYLASNLESGVPARFSGSGSGTDFTLNIHPVEEEDAATYYCQHSRELPLTFGAGTKLELKR
3 | 11 nM | 抗体H1K1 (antibody, V domains shown) VH: EVQLQQPGSVLVRPGTSVKLSCKASGYTFTSSWIHWARQRPGQGLEWIGDIHPNSGNTNYNEKFKGKATLTVDTSSSTAYVDLSSLTSEDSAVYYCVRSYGNYKDYYGMDYWGQGTSVTVSS VL: DILMTQSPASLAVSLGQRATISCKASQSVDYDGDSYMNWYQQKPGQPPKLLIYAASNLESGIPARFSGSGSGTDFTLNIHPVEEEDAATYYCQQSNEDPYTFGGGTKLEIKR
